According to US20250051467A1 (JIANGSU HENGRUI PHARMACEUTICALS, published 2025):
Numbering of substitutions follows the chain as printed. Names and notes keep the numbering of the source. Each block holds one binder with its values, some of them ahead of it.

Key:
[1] = target: T1, human CD40 with C-terminal Flag tag on HEK293 cells (human, UniProt P25942 21-277); assay: FACS, HEK293 cells transiently expressing human CD40
T1 construct: whole, on cells; also called HEK293 cells highly expressing CD40; cell strain highly expressing human CD40
T1 sequence (P25942 other isoform, or with tags, fused parts or gaps): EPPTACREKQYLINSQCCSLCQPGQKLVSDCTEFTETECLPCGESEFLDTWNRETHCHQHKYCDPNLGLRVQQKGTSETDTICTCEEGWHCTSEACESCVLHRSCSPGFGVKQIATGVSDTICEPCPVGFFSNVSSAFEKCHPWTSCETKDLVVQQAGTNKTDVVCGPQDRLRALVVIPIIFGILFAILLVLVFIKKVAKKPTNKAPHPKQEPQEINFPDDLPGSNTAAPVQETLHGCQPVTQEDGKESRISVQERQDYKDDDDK
Experimental: The ability of the humanized antibodies to bind to cells highly expressing the human antigen protein CD40 was measured by FACS. HEK293 cells were transiently transfected with CD40 plasmids (CD40 cDNA ORF Clone, Human, C-[…] (Flag®) Tag; Sino Biological; HG10774-CF), yielding HEK293 cells highly expressing CD40. The resulting cells were resuspended in the flow cytometry staining buffer ([…]), and the test antibodies that had been serially diluted to different concentrations were added. After 1 h of incubation on ice, the cells were washed with PBS and centrifuged at 400 g for 5 min. A goat anti-human Fc antibody labeled with the fluorescent group Alexa Fluor 647 was added as a secondary antibody, and the cells were stained in an ice bath for 1 h. After two washes with PBS, the fluorescent signals on the cell surface were detected by FACS. The humanized antibodies of the present disclosure all have relatively high affinities for the cell strain highly expressing CD40.

[2] = target: T2, human CD40 on cells (Raji cells; HEK-Blue CD40L cells; human dendritic cells) (human, UniProt P25942 21-277); assay: cell-based or functional assay
T2 sequence (P25942 21-277): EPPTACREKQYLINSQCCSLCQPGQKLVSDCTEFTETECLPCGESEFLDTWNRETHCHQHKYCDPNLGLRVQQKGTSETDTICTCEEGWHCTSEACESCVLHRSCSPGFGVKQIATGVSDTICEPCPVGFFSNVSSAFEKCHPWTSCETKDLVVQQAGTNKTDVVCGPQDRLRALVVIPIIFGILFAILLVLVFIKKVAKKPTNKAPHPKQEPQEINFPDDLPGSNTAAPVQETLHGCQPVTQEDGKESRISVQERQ

[3] = target: T3, cynomolgus monkey FAP on CHOK1 cells (cynomolgus monkey); assay: FACS, CHOK1 cells stably expressing cynomolgus monkey FAP
T3 construct: whole, on cells
Experimental: (§1) In this experiment, the binding of the anti-FAP/CD40 bispecific antibodies to stably transfected strains of CHOK1 cells that highly express human FAP, cynomolgus monkey FAP and mouse FAP was measured by FACS.

[4] = target: T2, human CD40 on cells (Raji cells; …); assay: FACS, HEK-Blue CD40L cells expressing human CD40
Experimental: (§2) The binding of the bispecific antibodies to cell surface CD40 was measured by FACS, including HEK-Blue™CD40L cells highly expressing human CD40 (Invivogen, Cat #hkb-cd40), and HEK293 cells that were transiently transfected with cynomolgus monkey CD40 plasmids (Sino Biological, cat #CG90970-UT) and thus made to highly express cynomolgus monkey CD40. […] See FIGS. 9A, 9B and 11 and Table 21 for details.

[5] = target: T4, cynomolgus monkey CD40 on HEK293 cells (cynomolgus monkey, UniProt G7PG38 21-278); assay: FACS, HEK293 cells transiently expressing cynomolgus monkey CD40
T4 construct: whole, on cells
Experimental: as §2

mouse FAP on CHOK1 cells [6] = target: T5, mouse FAP on CHOK1 cells (mouse, UniProt P97321 1-761); assay: FACS, CHOK1 cells stably expressing mouse FAP
T5 construct: whole, on cells; also called cell surface mouse FAP
T5 sequence (P97321 whole entry): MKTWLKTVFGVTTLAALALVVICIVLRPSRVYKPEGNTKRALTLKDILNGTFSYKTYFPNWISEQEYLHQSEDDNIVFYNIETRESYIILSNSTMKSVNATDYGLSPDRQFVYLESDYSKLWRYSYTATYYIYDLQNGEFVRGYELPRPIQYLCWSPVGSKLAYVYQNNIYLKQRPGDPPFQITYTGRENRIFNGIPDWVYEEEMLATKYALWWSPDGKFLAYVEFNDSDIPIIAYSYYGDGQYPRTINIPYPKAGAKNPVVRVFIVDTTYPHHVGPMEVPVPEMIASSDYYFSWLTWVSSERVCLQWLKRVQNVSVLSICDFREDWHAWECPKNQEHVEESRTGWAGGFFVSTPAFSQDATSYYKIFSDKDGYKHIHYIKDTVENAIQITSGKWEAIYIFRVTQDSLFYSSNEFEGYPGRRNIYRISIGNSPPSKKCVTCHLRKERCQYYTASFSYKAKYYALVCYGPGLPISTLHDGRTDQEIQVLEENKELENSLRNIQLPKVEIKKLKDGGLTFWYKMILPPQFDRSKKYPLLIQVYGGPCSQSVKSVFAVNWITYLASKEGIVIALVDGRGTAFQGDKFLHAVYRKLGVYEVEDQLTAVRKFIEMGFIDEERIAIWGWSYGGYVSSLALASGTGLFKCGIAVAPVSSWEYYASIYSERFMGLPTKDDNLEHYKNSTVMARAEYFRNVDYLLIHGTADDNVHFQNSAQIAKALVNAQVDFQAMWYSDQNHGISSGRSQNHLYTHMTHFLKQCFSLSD
Experimental: as §1

human FAP on CHO cells [7] = target: T6, human FAP on CHO cells (human, UniProt Q12884 1-760); assay: FACS, CHOK1 cells stably expressing human FAP
T6 construct: whole, on cells; also called CHO cell line overexpressing human FAP; CHOK1/FAP
Experimental: as §1

h-CD40-His = target: T7, h-CD40-His (human, UniProt P25942 21-193); assay: SPR (Biacore 8K), antibody captured by anti-human IgG Fc, human CD40 analyte
T7 construct: range 21-193; Bought His-tagged recombinant protein; also called human CD40 protein (Acro, CD0-H5228); human CD40
T7 sequence (P25942 21-193 limits assumed): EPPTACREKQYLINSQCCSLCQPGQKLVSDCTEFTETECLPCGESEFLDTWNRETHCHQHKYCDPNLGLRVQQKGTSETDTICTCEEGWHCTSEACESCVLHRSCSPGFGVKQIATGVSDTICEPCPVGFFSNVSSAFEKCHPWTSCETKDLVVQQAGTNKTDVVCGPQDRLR
Experimental: (§3) The affinities of the anti-FAP/CD40 bispecific antibodies for their antigens, the human FAP protein (Acro, FAP-H5244) and the human CD40 protein (Acro, CD0-H5228), were measured by SPR (GE Healthcare; Biacore 8K). A CM5 sensor chip was used, and HBS-EP+buffer solution (10 mM HEPES, 150 mM NaCl, 3 mM EDTA, 0.05% surfactant P20) was used as the mobile phase. An anti-human IgG (Fc) antibody was immobilized by amino coupling. The test antibodies were separately diluted in HBS-EP+buffer solution as ligands and captured by the anti-human IgG (Fc) antibody on chip channels. Antigenic proteins of different species were used as analytes.

[8] = target: T8, human FAP protein (Acro, FAP-H5244) (human, UniProt Q12884 26-760); assay: SPR (Biacore 8K), antibody captured by anti-human IgG Fc, human FAP analyte
T8 construct: Bought protein
Experimental: as §3

mouse FAP on CHOK1 cells [9] = target: T5, mouse FAP on CHOK1 cells; assay: FACS, percent of marked cells overexpressing mouse FAP, anti-hIgG Alexa Fluor-647 secondary antibody
Experimental: (§4) A FACS assay was used to measure the binding properties of anti-FAP antibodies on cells. The assay comprises the following steps: A CHO cell line overexpressing human FAP was constructed and plated (1E5/well). The test antibodies were added at 100 μL/well. The highest concentration was 100 nM. A 5-fold dilution was performed, yielding 8 concentrations in total. The plate was incubated at 4° C. for 1 h. Anti-hIgG Alexa Fluor-647 was added as a secondary antibody in the ratio of 1:500. The plate was incubated at 4° C. for 30 min, and a FACS assay was performed. Antibodies that bind to FAP can mark cells. The relation between the percentage of the marked cells that over-express human FAP among all cells and the antibody concentration is shown in FIG. 1. The relation between the percentage of the marked cells that over-express mouse FAP among all cells and the antibody concentration is shown in FIG. 2.

human FAP on CHO cells [10] = target: T6, human FAP on CHO cells; assay: FACS, CHO cells overexpressing human FAP
Experimental: as §4

h-FAP-His = target: T9, h-FAP-His (human, UniProt Q12884 26-760); assay: SPR, antibody captured by anti-human IgG Fc, h-FAP-His analyte
T9 construct: range 26-760; Bought recombinant protein with a His tag; also called human FAP-His protein; FAP recombinant protein with a His tag
Experimental: A CM5 sensor chip was used, and HBS-EP+buffer solution (10 mM HEPES, 150 mM NaCl, 3 mM EDTA, 0.05% surfactant P20) was used as the mobile phase. An anti-human IgG (Fc) antibody was made into a […] solution in a 10 mM sodium acetate buffer solution (pH 5.0) and immobilized by amino coupling. The test antibodies were diluted in HBS-EP+buffer solution and captured by the anti-human IgG (Fc) antibody on chip channels. h-FAP-His was dissolved in HBS-EP+buffer solution to prepare an analyte, and the analyte was serially diluted 2-fold. The diluted antibodies were passed through the experimental and reference channels at a flow rate of […], with 1 min of binding and 15 min of disassociation. 10 mM Glycine pH 1.5 was passed as a regeneration buffer solution for 30 s at a flow rate of […]. Data were analyzed. […] However, the binding affinities of the other anti-FAP antibodies obtained by screening at the same time in the present disclosure, such as Ab2, Ab4 and Ab5 (sequences not shown), for the antigen are lower than that of 28H1.

EC50 [1]: 1.25 nM
Emax (MFI) [1]: 12800 MFI
FcγRIIb-mediated activation of HEK-Blue CD40L cells, EC50 [2]: 6 pM
FcγRIIb-mediated activation of HEK-Blue CD40L cells, Emax (relative fluorescence intensity) [2]: 12.8 relative fluorescence intensity
B1: A297V3-Fc (Fc fusion)
chain: EVQLVESGGGLVQPGGSLRLSCAASGFTFSRYGMKWVRQAPGKGLEWVSTINSHGDTTYYADSVKGRFTISRDNAKNSLYLQMNSLRAEDTAVYYCLRIDYSDYSSRGQGTLVTVSSEPKSADKTHTCPPCPAPELLGGPSVFLFPPKPKDTLMISRTPEVTCVVVDVEHEDPEVKFNWYVDGVEVHNAKTKPREEQYNSTYRVVSVLTVLHQDWLNGKEYKCKVSSKAFPAPIEKTISKAKGQPREPQVYTLPPSRDELTKNQVSLTCLVKGFYPSDIAVEWESNGQPENNYKTTPPVLDSDGSFFLYSKLTVDKSRWQQGNVFSCSVMHEALHNHYTQKSLSLSPGK

EC50 [1]: 2.13 nM
Emax (MFI) [1]: 16600 MFI
FcγRIIb-mediated activation of HEK-Blue CD40L cells, EC50 [2]: 9 pM
FcγRIIb-mediated activation of HEK-Blue CD40L cells, Emax (relative fluorescence intensity) [2]: 21.6 relative fluorescence intensity
B2: A12V1-Fc (Fc fusion)
chain: EVQLVESGGGLVQPGGSLRLSCAASGFTFSNYGMKWVRQAPGKGLEWVSTILSQGGSTYYADSVKGRFTISRDNAKNSLYLQMNSLRAEDTALYYCARVDWSDYSPRGQGTMVTVSSEPKSADKTHTCPPCPAPELLGGPSVFLFPPKPKDTLMISRTPEVTCVVVDVEHEDPEVKFNWYVDGVEVHNAKTKPREEQYNSTYRVVSVLTVLHQDWLNGKEYKCKVSSKAFPAPIEKTISKAKGQPREPQVYTLPPSRDELTKNQVSLTCLVKGFYPSDIAVEWESNGQPENNYKTTPPVLDSDGSFFLYSKLTVDKSRWQQGNVFSCSVMHEALHNHYTQKSLSLSPGK

EC50 [1]: 0.42 nM
Emax (MFI) [1]: 16600 MFI
FcγRIIb-mediated activation of HEK-Blue CD40L cells, EC50 [2]: 2 pM
FcγRIIb-mediated activation of HEK-Blue CD40L cells, Emax (relative fluorescence intensity) [2]: 18.6 relative fluorescence intensity
B3: A12V2-Fc (Fc fusion)
chain: B2 chain with A97L, M112Q

EC50 [1]: 1.11 nM
Emax (MFI) [1]: 7300 MFI
FcγRIIb-mediated activation of HEK-Blue CD40L cells, EC50 [2]: 21 pM
FcγRIIb-mediated activation of HEK-Blue CD40L cells, Emax (relative fluorescence intensity) [2]: 18.4 relative fluorescence intensity
B4: A297V1-Fc (Fc fusion)
chain: B1 chain with E1Q, L11V, V93L, L97A, L112M

EC50 [1]: 1.74 nM
Emax (MFI) [1]: 16900 MFI
FcγRIIb-mediated activation of HEK-Blue CD40L cells, EC50 [2]: 11 pM
FcγRIIb-mediated activation of HEK-Blue CD40L cells, Emax (relative fluorescence intensity) [2]: 19.1 relative fluorescence intensity
B5: A12V3-Fc (Fc fusion)
chain: B2 chain with L4V, A75S, S78T, L93V, A97L, M112Q

EC50 [1]: 1.07 nM
Emax (MFI) [1]: 12800 MFI
FcγRIIb-mediated activation of HEK-Blue CD40L cells, EC50 [2]: 5 pM
FcγRIIb-mediated activation of HEK-Blue CD40L cells, Emax (relative fluorescence intensity) [2]: 20 relative fluorescence intensity
B6: A297V2-Fc (Fc fusion)
chain: B1 chain with E1Q, L11V, V93L, L112M

EC50 [1]: 2.7 nM
Emax (MFI) [1]: 8260 MFI
FcγRIIb-mediated activation of HEK-Blue CD40L cells, EC50 [2]: 38 pM
FcγRIIb-mediated activation of HEK-Blue CD40L cells, Emax (relative fluorescence intensity) [2]: 13.3 relative fluorescence intensity
B7: A297V4-Fc (Fc fusion)
chain: B1 chain with T57S, A75S, S78T, R98K

EC50 [3]: 5.65 nM
Emax (MFI) [3]: 45000 MFI
EC50 [4]: 2.4 nM
Emax (MFI) [4]: 7570 MFI
EC50 [5]: 2.76 nM
Emax (MFI) [5]: 6610 MFI
EC50 (mouse FAP on CHOK1 cells [6]): 4.32 nM
Emax (MFI) (mouse FAP on CHOK1 cells [6]): 19500 MFI
EC50 (human FAP on CHO cells [7]): 2.72 nM
Emax (MFI) (human FAP on CHO cells [7]): 74000 MFI
B8: Ab10-A12V2-2 (bispecific antibody, human IgG1, kappa, L234A L235A)
heavy: not shown
light: DIQMTQSPSSVSASVGDRVTITCRASQGISSWLAWYQQKPGKAPKLLIYAASSLQSGVPSRFSGSGSGTDFTLTISSLQPEDFATYYCQQANSFPPAFGQGTKVEIKRTVAAPSVFIFPPSDEQLKSGTASVVCLLNNFYPREAKVQWKVDNALQSGNSQESVTEQDSKDSTYSLSSTLTLSKADYEKHKVYACEVTHQGLSSPVTKSFNRGEC
notes: divalent for CD40

EC50 [3]: 2.26 nM
Emax (MFI) [3]: 43200 MFI
EC50 [4]: 0.79 nM
Emax (MFI) [4]: 4640 MFI
EC50 [5]: 3.24 nM
Emax (MFI) [5]: 6540 MFI
EC50 (mouse FAP on CHOK1 cells [6]): 4.43 nM
Emax (MFI) (mouse FAP on CHOK1 cells [6]): 19000 MFI
EC50 (human FAP on CHO cells [7]): 2.57 nM
Emax (MFI) (human FAP on CHO cells [7]): 64900 MFI
Kd (h-CD40-His): 29 nM
koff (h-CD40-His): 0.002 s⁻¹
kon (h-CD40-His): 69000 M⁻¹ s⁻¹
Kd [8]: 0.294 nM
koff [8]: 5.14e-05 s⁻¹
kon [8]: 175000 M⁻¹ s⁻¹
B9: Ab10-A12V2-4 (bispecific antibody, human IgG1, kappa, L234A L235A)
heavy: not shown
light: B8 light
notes: Ab10 IgG1 (L234A/L235A) with two A12V2 VHHs in tandem on each heavy chain C-terminus; tetravalent for CD40

EC50 (read off the curve) (mouse FAP on CHOK1 cells [9]): ~1 ng/mL
EC50 (human FAP on CHO cells [10]): 0.784 ng/mL
Kd (h-FAP-His): 1.31 nM
Ratio of KD of 28H1 to KD of test antibody (h-FAP-His): 1
Ratio of Kd of 28H1 to Kd of test antibody (h-FAP-His): 1
koff (h-FAP-His): 0.000255 s⁻¹
kon (h-FAP-His): 195000 M⁻¹ s⁻¹
B10: 28H1 (antibody, V domains shown)
VH: EVQLLESGGGLVQPGGSLRLSCAASGFTFSSHAMSWVRQAPGKGLEWVSAIWASGEQYYADSVKGRFTISRDNSKNTLYLQMNSLRAEDTAVYYCAKGWLGNFDYWGQGTLVTVSS
VL: EIVLTQSPGTLSLSPGERATLSCRASQSVSRSYLAWYQQKPGQAPRLLIIGASTRATGIPDRFSGSGSGTDFTLTISRLEPEDFAVYYCQQGQVIPPTFGQGTKVEIK
notes: also called control anti-FAP antibody 28H1
